Test results from patent US20140294821A1.

Legend:
[1] = molecular target: human von Willebrand factor, FVIII-free, plasma derived (human) (UniProt P04275); test: SPR (BIAcore), hvWf as ligand, FVIII protein as analyte, N=5
[2] = molecular target: human von Willebrand factor, FVIII-free, plasma derived (human) (UniProt P04275); test: SPR (BIAcore), single-cycle kinetics 0.13-5.0 nM, plasma derived human vWF immobilized by amine coupling, 1:1 model, N=6
[3] = molecular target: human von Willebrand factor, FVIII-free, plasma derived (human) (UniProt P04275); test: SPR (BIAcore), binding to vWF

“rBDD FVIII (recombinant B-domain deleted FVIII lacking Fc moieties) (from UniProt P00451 20-1667; P00451 1668-2351)” was tested, and the Kd [1] was 0.846 nM, the koff [1] was 0.00114 s⁻¹ and the kon [1] was 1.37e+06 M⁻¹ s⁻¹.
For “rFVIIIFc (recombinant B-domain deleted human FVIII-Fc monomer hybrid), drug substance (from UniProt P00451 20-1667; P0DOX5 223-449) (Fc fusion)”, the Kd [2] was 0.34 nM, the koff [2] was 0.00089 s⁻¹ and the kon [2] was 2.6e+06 M⁻¹ s⁻¹. The Kd [1] was 1.64 nM, the koff [1] was 0.00125 s⁻¹ and the kon [1] was 792000 M⁻¹ s⁻¹. The fold difference in affinity (KD) against rBDD FVIII [3] was 2 fold, the fold difference in on-rate against rBDD FVIII [3] was 2 fold and the fold of KD against BDD FVIII alone [3] was 2 fold.
